From publication PMC10402027 (bioRxiv, 2023)

Target: T1, progesterone receptor, B isoform (PR-B) (UniProt P06401 1-933)
T1 sequence: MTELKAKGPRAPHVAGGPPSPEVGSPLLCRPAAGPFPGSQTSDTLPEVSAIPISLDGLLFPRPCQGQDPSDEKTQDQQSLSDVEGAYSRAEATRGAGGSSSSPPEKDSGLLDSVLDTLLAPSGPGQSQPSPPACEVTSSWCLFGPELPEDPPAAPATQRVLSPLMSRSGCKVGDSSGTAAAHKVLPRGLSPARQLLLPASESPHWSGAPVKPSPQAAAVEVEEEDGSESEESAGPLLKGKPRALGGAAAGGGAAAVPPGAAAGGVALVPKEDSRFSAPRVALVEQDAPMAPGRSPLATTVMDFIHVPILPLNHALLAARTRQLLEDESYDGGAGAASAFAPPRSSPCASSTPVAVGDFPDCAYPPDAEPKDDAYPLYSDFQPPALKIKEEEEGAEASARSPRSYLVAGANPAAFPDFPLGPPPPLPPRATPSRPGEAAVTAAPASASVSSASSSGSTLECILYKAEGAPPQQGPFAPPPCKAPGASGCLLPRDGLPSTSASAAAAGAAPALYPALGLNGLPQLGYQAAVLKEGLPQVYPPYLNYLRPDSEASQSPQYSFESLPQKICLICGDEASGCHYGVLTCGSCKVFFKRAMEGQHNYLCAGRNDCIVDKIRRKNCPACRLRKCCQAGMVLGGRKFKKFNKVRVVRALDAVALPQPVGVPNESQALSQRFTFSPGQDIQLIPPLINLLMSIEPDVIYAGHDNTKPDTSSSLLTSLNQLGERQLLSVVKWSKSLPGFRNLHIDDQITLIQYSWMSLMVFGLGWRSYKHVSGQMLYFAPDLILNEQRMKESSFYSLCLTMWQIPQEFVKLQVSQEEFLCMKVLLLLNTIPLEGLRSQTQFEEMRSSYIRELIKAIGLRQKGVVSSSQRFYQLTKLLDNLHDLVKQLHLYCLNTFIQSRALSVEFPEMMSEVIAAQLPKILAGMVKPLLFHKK
Experiment: FRET or BRET

B1: estrogen receptor alpha Y537S (ERα Y537S) (receptor)
chain: MTMTLHTKASGMALLHQIQGNELEPLNRPQLKIPLERPLGEVYLDSSKPAVYNYPEGAAYEFNAAAAANAQVYGQTGLPYGPGSEAAAFGSNGLGGFPPLNSVSPSPLMLLHPPPQLSPFLQPHGQQVPYYLENEPSGYTVREAGPPAFYRPNSDNRRQGGRERLASTNDKGSMAMESAKETRYCAVCNDYASGYHYGVWSCEGCKAFFKRSIQGHNDYMCPATNQCTIDKNRRKSCQACRLRKCYEVGMMKGGIRKDRRGGRMLKHKRQRDDGEGRGEVGSAGDMRAANLWPSPLMIKRSKKNSLALSLTADQMVSALLDAEPPILYSEYDPTRPFSEASMMGLLTNLADRELVHMINWAKRVPGFVDLTLHDQVHLLECAWLEILMIGLVWRSMEHPGKLLFAPNLLLDRNQGKCVEGMVEIFDMLLATSSRFRMMNLQGEEFVCLKSIILLNSGVYTFLSSTLKSLEEKDHIHRVLDKITDTLIHLMAKAGLTLQQQHQRLAQLLLILSHIRHMSNKGMEHLYSMKCKNVVPLSDLLLEMLDAHRLHAPTSRGGASVEETDQSHLATAGSTSSHSLQKYYITGEAEGFPATV
- fold of the progesterone-induced increase in NanoBRET proximity against ERα WT: ~2 fold
